Results on 1 substance are retold here after patent US20210371508A1.

Assay [1] has as its target V5-hNMES1 (human) (UniProt Q9C002). Kind of assay: IP with IgG control, lysate of 231 cells with V5-NMES1 OE pre-incubated with isotype ctrl; western blot for NMES1; a band is visible in this control lane.
Assay [2] has the same target. Kind of assay: IP with IgG control, lysate of 231 cells with V5-NMES1 OE pre-incubated with NM-1; western blot for NMES1; hardly any band. Background: In western blotting, separated proteins are transferred to a membrane and probed.
Assay [3] has as its target transferrin receptor 1 (TFRC) (human) (UniProt P02786). Nature of the assay: IP with IgG control, lysate of 231 cells with V5-NMES1 OE pre-incubated with isotype ctrl; western blot for TFRC.
Assay [4] shares this target. Nature of the assay: IP with IgG control, lysate of 231 cells with V5-NMES1 OE pre-incubated with NM-1; western blot for TFRC.

Sequence of transferrin receptor 1 (TFRC) (human) (P02786 whole entry): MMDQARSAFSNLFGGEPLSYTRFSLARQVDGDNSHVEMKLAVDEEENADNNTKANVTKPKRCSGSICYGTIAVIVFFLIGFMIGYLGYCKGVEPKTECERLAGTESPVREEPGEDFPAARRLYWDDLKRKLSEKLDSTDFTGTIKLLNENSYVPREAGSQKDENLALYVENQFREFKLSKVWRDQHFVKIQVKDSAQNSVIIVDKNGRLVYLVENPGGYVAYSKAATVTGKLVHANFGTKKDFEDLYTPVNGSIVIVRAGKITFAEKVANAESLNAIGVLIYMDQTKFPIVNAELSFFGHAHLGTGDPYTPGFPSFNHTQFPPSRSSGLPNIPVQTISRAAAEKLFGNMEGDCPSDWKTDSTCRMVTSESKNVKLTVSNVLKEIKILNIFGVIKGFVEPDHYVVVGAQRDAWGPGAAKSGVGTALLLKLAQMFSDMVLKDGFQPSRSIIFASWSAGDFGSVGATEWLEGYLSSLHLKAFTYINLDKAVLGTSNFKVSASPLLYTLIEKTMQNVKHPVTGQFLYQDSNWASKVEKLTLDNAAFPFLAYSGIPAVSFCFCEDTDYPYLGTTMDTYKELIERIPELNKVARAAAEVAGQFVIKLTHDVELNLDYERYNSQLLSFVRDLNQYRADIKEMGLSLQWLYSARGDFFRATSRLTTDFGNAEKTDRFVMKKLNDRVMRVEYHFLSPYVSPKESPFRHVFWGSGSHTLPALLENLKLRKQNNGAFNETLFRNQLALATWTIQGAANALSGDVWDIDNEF
Sequence of V5-hNMES1 (human) (Q9C002 whole entry): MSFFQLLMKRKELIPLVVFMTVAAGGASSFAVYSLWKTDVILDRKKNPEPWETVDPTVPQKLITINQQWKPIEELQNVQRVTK

As for isotype IgG control (antibody), the number under the NMES1 band (band intensity, not named on the sheet) in the assay with V5-hNMES1 (human) [1] was determined as 38.5; with V5-hNMES1 (human) [2] it was 15.8. Further, the number under the TFRC band (band intensity, not named on the sheet) in assay [3] turned out to be 24; in assay [4] it was 27.4.
